From patent publication US20260217821A1 (SPH BIOTHERAPEUTICS SHANGHAI, published 2026)

B1: hu5-26 ROR1 VHH CAR (other)
chain: QVQLVESGGGLVQPGGSLRLSCAASGFTLDLYAIGWFRQAPGKERGLVSCISSGGSTNYAESVKGRFTISRDNSKNTVYLQMNSLRSEDTAVYYCVRSVPSCGSYYFPPRNMNYWGQGTLVTVSSIEVMYPPPYLDNEKSNGTIIHVKGKHLCPSPLFPGPSKPFWVLVVVGGVLACYSLLVTVAFIIFWVKRGRKKLLYIFKQPFMRPVQTTQEEDGCSCRFPEEEEGGCELRVKFSRSADAPAYKQGQNQLYNELNLGRREEYDVLDKRRGRDPEMGGKPRRKNPQEGLYNELQKDKMAEAYSEIGMKGERRRGKGHDGLYQGLSTATKDTYDALHMQALPPR
B2: 5-26 (VHH)
VHH: QVQLQESGGGLVQPGGSLRLSCAASGFTLDLYAIGWFRQAPGKERERVSCISSGGSTNYAESVKGRFTISRDNGKNTVYLQMNSLKPEDTAVYYCVRSVPSCGSYYFPPRNMNYWGKGTQVTVSS
notes: Alpaca VHH from the phage library; not shown: one his tag and one HA tag at the C-terminus
B3: 5-09 (VHH)
VHH: QVQLQESGGGLVQPGGSLRLSCAASGFTLDDYAIGWFRQAPGKERERISCISSGGNTNYADSVKGRFTLSRDNAKNTVYLQMYSLKPEDTAVYYCTASIPSCASYYFPPRNMDYWGKGTQVTVSS
notes: also called 5-9; not shown: one his tag and one HA tag at the C-terminus
B4: 5-95 (VHH)
VHH: QVQLQESGGGLVQPGGSLRLSCAASGFTFSTYSMTWVRQAPGKGLEWVSDINSGGSVAYYTDSVKGRFTASRDNAKNTLYLQMNSLKPEDTAVYYCYEGGYHGGSPRGHGTQVTVSS
notes: not shown: one his tag and one HA tag at the C-terminus
B5: 4-92 (VHH)
VHH: QVQLQESGGGLVQPGGSLRLSCAASGFAFSSRAMSWVRQAPGKGLEWVSDINYDGAWTYYADSVKGRFTISRDNAKNTLYLQMNSLKPEDTAVYFCTDPWSIDGWGQGTQVTVSS
notes: as for B2
B6: VHH1 (VHH)
VHH: QVQLVESGGGLVQPGGSLRLSCAASGFTFSDTWMNWVRQAPGKGLYWISAINPDGGNTAYADSVKGRFTISRDNAKNMVYLQMDNLRPEDTAMYYCAKGWVRLPDPDLVRGQGTQVTVSS
notes: Non-specific control VHH; also called non-specific VHH; negative control VHH1
B7: VHH2 (VHH)
VHH: QVQLVESGGGLVQAGGSLRLSCAASGSIFSINAMAWYRHRPGMQRERVAAISSGGTTSYADSVKGRFTISRDNARDTLYLQMNSLKPEDTAMYYCAACPGDYTSTICNSDGMDYWGKGTLVTVSS
notes: Non-specific control VHH; also called non-specific VHH; negative control VHH2

Assays:
[1] = molecular target: T1, ROR1 expressed on cells (A549, MB231, JeKo-1, MEC-ROR1) (UniProt Q01973 30-937); experiment: cell-based or functional assay
[2] = molecular target: T1, ROR1 expressed on cells (A549, MB231, …); experiment: flow cytometry on A549 cells, 1 µg/ml, anti-HA APC
[3] = molecular target: T1, ROR1 expressed on cells (A549, MB231, …); experiment: flow cytometry on JeKo-1 cells, 1 µg/ml, anti-HA APC
[4] = molecular target: T1, ROR1 expressed on cells (A549, MB231, …); experiment: flow cytometry on MB231 cells, 1 µg/ml, anti-HA APC
recombinant ROR1 protein = molecular target: T2, recombinant ROR1 protein (UniProt Q01973 30-403, limits assumed); experiment: ELISA, OD450 (FIG. 6C)
T2 construct: also called his-tagged ROR1; not shown: his tag
T2 sequence (Q01973 30-403 limits assumed): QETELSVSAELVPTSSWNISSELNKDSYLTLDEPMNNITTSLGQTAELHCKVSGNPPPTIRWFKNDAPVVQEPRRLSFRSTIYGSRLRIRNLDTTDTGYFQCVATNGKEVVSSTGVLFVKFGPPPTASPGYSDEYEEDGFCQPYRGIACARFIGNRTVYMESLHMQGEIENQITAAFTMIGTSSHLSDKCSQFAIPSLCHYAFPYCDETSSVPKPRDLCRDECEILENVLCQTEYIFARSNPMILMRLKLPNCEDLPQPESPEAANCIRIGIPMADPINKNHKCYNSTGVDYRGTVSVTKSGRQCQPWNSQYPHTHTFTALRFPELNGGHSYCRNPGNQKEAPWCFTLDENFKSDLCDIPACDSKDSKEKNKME

T1 sequence (Q01973 30-937): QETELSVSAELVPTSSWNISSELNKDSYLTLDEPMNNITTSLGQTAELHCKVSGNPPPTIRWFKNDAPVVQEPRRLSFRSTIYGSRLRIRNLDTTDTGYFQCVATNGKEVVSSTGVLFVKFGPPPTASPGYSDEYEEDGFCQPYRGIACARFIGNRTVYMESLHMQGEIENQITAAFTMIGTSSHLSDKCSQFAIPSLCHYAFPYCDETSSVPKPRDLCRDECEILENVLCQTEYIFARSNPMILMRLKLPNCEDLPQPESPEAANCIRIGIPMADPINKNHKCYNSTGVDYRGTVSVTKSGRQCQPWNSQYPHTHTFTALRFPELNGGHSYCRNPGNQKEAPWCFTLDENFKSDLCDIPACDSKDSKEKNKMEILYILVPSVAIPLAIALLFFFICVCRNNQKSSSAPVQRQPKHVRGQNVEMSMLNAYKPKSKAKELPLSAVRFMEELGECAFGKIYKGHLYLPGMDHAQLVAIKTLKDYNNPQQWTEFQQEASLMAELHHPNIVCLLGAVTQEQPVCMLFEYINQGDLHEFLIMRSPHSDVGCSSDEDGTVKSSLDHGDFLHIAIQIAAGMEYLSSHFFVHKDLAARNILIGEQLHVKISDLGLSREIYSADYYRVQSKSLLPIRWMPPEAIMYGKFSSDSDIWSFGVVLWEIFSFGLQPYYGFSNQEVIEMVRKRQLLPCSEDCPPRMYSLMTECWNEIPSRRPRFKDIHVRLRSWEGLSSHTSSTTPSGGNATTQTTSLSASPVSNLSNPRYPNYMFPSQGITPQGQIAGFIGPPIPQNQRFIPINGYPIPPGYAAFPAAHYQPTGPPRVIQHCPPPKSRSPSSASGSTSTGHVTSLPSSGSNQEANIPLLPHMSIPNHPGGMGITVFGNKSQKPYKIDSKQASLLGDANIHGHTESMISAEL

Binder | proportion of target cells (surviving, GFP-labeled) after 24 hours, effector-to-target ratio 1:1, MB231 [1] | proportion of target cells (surviving, GFP-labeled) after 24 hours, effector-to-target ratio 1:1, MEC-ROR1 [1] | proportion of binding cells [2] | proportion of binding cells [3] | proportion of binding cells [4] | binding result (recombinant ROR1 protein)
B1 | 2.96% | 1.93% | – | – | – | –
B2 | – | – | 97% | 99.7% | 96.8% | –
B3 | – | – | 18.5% | 1.9% | 61.7% | –
B4 | – | – | 11.8% | 1.18% | 53.3% | –
B5 | – | – | 34.6% | 2.96% | 74.3% | –
B6 | – | – | – | – | – | no binding
B7 | – | – | – | – | – | no binding
